{"source": "patent US7655619B2", "about": "“Insulin-associated peptides with effects on cerebral health” (Thomas Jefferson University, priority 2002, dated 2010)", "molecules": {"B1": {"name": "α2HSG: endogenous inhibitor of insulin receptor tyrosine kinase activity; insulin antagonist (protein, UniProt P02765 19-300; P02765 341-367, looked up)", "Alpha-2-HS-glycoprotein chain … 1": "APHGPGLIYRQPNCDDPETEEAALVAIDYINQNLPWGYKHTLNQIDEVKVWPQQPSGELFEIEIDTLETTCHVLDPTPVARCSVRQLKEHAVEGDCDFQLLKLDGKFSVVYAKCDSSPDSAEDVRKVCQDCPLLAPLNDTRVVHAAKAALAAFNAQNNGSNFQLEEISRAQLVPLPPSTYVEFTVSGTDCVAKEATEAAKCNLLAEKQYGFCKATLSEKLGGAEVAVTCMVFQTQPVSSQPQPEGANEAVPTPVVDPDAPPSPPLGAPGLPPAGSPPDSHVL", "Alpha-2-HS-glycoprotein chain … 2": "TVVQPSVGAAAGPVVPPCPGRIRHFKV"}}, "key": {"rats [1]": {"system": "rats", "test": "one-trial passive avoidance procedure (associative learning), intranasal pretreatment", "format": "in vivo, Male Sprague Dawley rats", "method": "Passive avoidance was performed in an apparatus (MED Associates Inc., St. Albans, Vt.) consisting of one dark chamber and one light chamber that can be divided by a guillotine door. The training procedure was executed as previously described (N. Venable et al. Psychopharmacology 100, 215 (1990)). Rats were administered a 1.0 mA shock for 3 sec, mice a 0.5 mA shock for 5 sec. Retention tests were performed either at 1, 3 or 7 days post-pairing. Maximum latency was 600 sec for rats, 300 sec for mice.\nA control group received vehicle (5% cyclodextrin) alone."}, "[2]": {"test": "blood glucose levels by glucometer after intranasal administration", "conditions": "doses 3-30 μg, twenty minutes after administration, vs vehicle", "method": "Rats (N-5/group) were first anesthetized with isoflorane anesthesia and then administered vehicle (5% (2,6-DI—O-methyl)β-cyclodextrin) or insulin (3-30 μg, 28 USP units/mg) intra-nasally. Twenty minutes later, rats were sacrificed and blood glucose levels rapidly determined with a glucometer (Elite XL, Bayer)."}, "rats [3]": {"system": "rats", "test": "locomotor activity in open field testing chamber", "conditions": "3-30 μg intranasal, 30 minutes in open field chamber, data not shown", "method": "Following pretreatment, the rats were placed for 30 minutes in an open field testing chamber (17″×17″×12″ H) where movement was detected every 50 ms by infrared photo beam emitter and detector strips at 1″ and 10″ from the bottom of the chamber. The activity chambers were lined to a PC computer and data was compiled via Activity Monitor Software (4.0, MED Associates, St. Albans, Vt.)."}, "rats [4]": {"system": "rats", "test": "one-trial passive avoidance with insulin antagonist α2HSG alone or in combination", "format": "in vivo", "conditions": "for latency time in passive avoidance: compared to vehicle alone", "protocol": "After a 20 minute pretreatment time, rats were placed in the light side of a two-chambered light/dark Plexiglas passive avoidance apparatus (MED Associates). Once the rat entered the dark chamber, a guillotine door was closed and a 1.0 mA shock (3 sec) was administered. The door was then raised and the rat was allowed to re-enter the light side. Latency (max 600 sec) to enter the dark chamber was taken as a measurement of associative learning."}, "rats [5]": {"system": "rats", "test": "Morris Water Maze (spatial learning), intranasal administration", "format": "in vivo, Male Sprague Dawley rats", "protocol": "Spatial learning was assessed using the Morris Water Maze (Morris et al. Nature, 1982, 297: 681). […] Animals were anaesthetized with isofluorane then administered peptide intra-nasally 20 min before testing. Rats were given four training trials. 48 h after training, a retention test was performed: rats were allowed to find the hidden platform for one trial. […] Latency to find the platform was considered a measure of retention of spatial learning."}}}
{"molecule": "insulin: insulin from bovine pancreas (C254H377N65O75S6), 28 USP units/mg, from Sigma", "values": [{"measurement": "retention of associative learning (24 hours)", "setting": "rats [1]; FIG. 9, 24 hours", "value": "enhances retention of associative learning"}, {"measurement": "latency to enter the dark chamber (associative learning)", "setting": "rats [1]; intranasal 10 μg dose, pretreatment 20 min, compared to vehicle", "value": "significantly (P<0.05) enhanced latency"}, {"measurement": "blood glucose levels", "setting": "[2]", "value": "no significant differences between treatment groups"}, {"measurement": "distance traveled (locomotor activity)", "setting": "rats [3]", "value": "did not differ between treatments"}, {"measurement": "latency time in passive avoidance", "setting": "rats [4]; insulin 10 μg alone intranasal", "value": "enhanced latency time"}, {"measurement": "latency to find hidden platform, retention test", "setting": "rats [5]; intranasal 3 μg, 48 hours following training, compared to vehicle", "value": "significantly deceased latency"}, {"measurement": "latency to find submerged platform, acquisition during training", "setting": "rats [5]; intranasal 3-30 μg, four training trials, between groups incl. vehicle", "value": "No significant differences occurred in acquisition between groups during training"}, {"measurement": "swimming speed", "setting": "rats [5]; intranasal, compared to vehicle", "value": "do not affect swimming speed compared to vehicle"}]}
{"molecule": "B1", "values": [{"measurement": "latency time in passive avoidance", "setting": "rats [4]; α2HSG 30 μg alone", "value": "no difference between antagonist alone and vehicle alone"}, {"measurement": "effect on enhancement of latency times by A-chain", "setting": "rats [4]; α2HSG 30 μg in combination with A-chain 3 μg, intranasal", "value": "blocked enhancement of latency times by A-chain"}, {"measurement": "effect on enhancement of latency times by insulin", "setting": "rats [4]; α2HSG 3-30 μg in combination with insulin 10 μg, intranasal", "value": "blocked enhancement of latency times by insulin"}]}
